From publication PMC9098466, “Substrate recognition and cryo-EM structure of the ribosome-bound TAC toxin of Mycobacterium tuberculosis” (Nature Communications, 2022)

Molecular target: ribosomal protein uS13 of the E. coli 70S ribosome (E. coli (endogenous in MG1655), UniProt P0A7S9 1-118)
Test: cryo-EM structure
Conditions: both partners purified

B1: HigB^TAC[K95A] toxin of Mycobacterium tuberculosis (enzyme)
chain: MPPPDPAAMGTWKFFRASVDGRPVFKKEFDKLPDQARAALIVLMQRYLVGDLAAGSIKPIRGDILELRWHEANNHFRVLFFRWGQHPVALTAFYANQQKTPKTKIETALDRQKIWKRAFGDTPPI
notes: also called HigB1
binding result: binds
